This experiment addresses T1, human LIGHT (TNFSF14), full length, membrane-bound (214E allele) (human, UniProt O43557 1-240).
T1 construct: also called membrane LIGHT; human membrane LIGHT
Put plainly: flow cytometry, HEK293FF human LIGHT cells (value given in the method). For orientation: A flow cytometer gives signals particle by particle.

T1 sequence (O43557 whole entry K214E): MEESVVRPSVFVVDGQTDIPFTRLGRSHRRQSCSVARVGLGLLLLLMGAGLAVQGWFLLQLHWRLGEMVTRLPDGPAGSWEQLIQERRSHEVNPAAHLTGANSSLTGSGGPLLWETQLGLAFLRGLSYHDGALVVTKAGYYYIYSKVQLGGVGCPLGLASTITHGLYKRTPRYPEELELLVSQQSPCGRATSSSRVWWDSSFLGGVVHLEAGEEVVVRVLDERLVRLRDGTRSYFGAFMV

B1: HVEM-Fc (Fc fusion, UniProt Q92956 37-202, looked up)
chain: PALPSCKEDEYPVGSECCPKCSPGYRVKEACGELTGTVCEPCPPGTYIAHLNGLSKCLQCQMCDPAMGLRASRNCSRTENAVCGCSPGHFCIVQDGDHCAACRAYATSSPGQRVQKGGTESQDTLCQNCPPGTFSPNGTLEECQHQTKCSWLVTKAGAGTSSSHWV
modifications: biotinylated (EZ-Link NHS-LC-Biotin) in the competition assays
notes: also called biotin-HVEM-Fc; biotinylated HVEM-Fc; not shown: Fc part of the bought fusion protein
On to B1, for which the concentration giving a half-maximal response (EC50) (usually the concentration that produces a half-maximal response) was determined as 45 nM.

Source of the values: US20230035798A1 (CAPELLA BIOSCIENCE, published 2023).
